Laboratory results taken from US10736933B2, “Peptide-induced NK cell activation” (priority 2015, dated 2020).

What was measured:
[1] = molecular target: T1, KIR2DS2 (Homo sapiens, UniProt P43631); test: KIR2DS2 tetramer (KIR2DS2-PE) staining of peptide-loaded L721.174 cells; type: binding; settings: L721.174 cells incubated overnight at 26° C. with peptide, flow cytometry
T1 construct: made in house
Procedure: A. The KIR2DS2 protein was expressed with a biotinylation C-terminal tag. Following biotinylation with the BirA enzyme, the KIR2DS2 protein was incubated with streptavidin-phycoerythrin to form fluorescent KIR2DS2-tetramers (KIR2DS2-PE). L721.174 cells were then incubated with indicated peptides. Cells were then stained with KIR2DS2-PE and analysed by flow cytometry. Shown are histogram plots. The bold numbers represent the mean fluorescent staining intensity of the KIR2DS2-PE staining of the cells in the presence of peptide and the non-bold numbers the staining in the absence of peptide. B. Represents the mean and standard error fluorescent intensities of the experiment in “A” following replicate experiments.
A. L721.174 cells were incubated with indicated peptides. Cells were then stained with KIR2DS2-PE (see FIG. 4) and analysed by flow cytometry. Shown are histogram plots. The bold numbers represent the mean fluorescent staining intensity of the KIR2DS2-PE staining of the cells in the presence of peptide and the non-bold numbers the staining in the absence of peptide. B. Represents the mean and standard error fluorescent intensities of the experiment in “A” following replicate experiments.
FIG. 13—KIR2DS2 tetramer staining on 174 cells with and without peptides. Peptides tested include IVDLMCHATF (SEQ ID NO: 1); VIDAMCHATL (SEQ ID NO: 2); AANVMAASL (SEQ ID NO: 3); and FLSDVPVATL (SEQ ID NO: 4). A negative control peptide VAPWNSFAL (SEQ ID NO: 12) and positive control peptide LNPSVAATL (SEQ ID NO: 5) were included. The mean fluorescence intensity of the KIR2DS2 tetramer staining is shown in the right hand corner of the graph.
With reference to FIG. 4A, the KIR2DS2 protein was expressed as a recombinant protein with a biotinylation C-terminal tag. Following biotinylation with the BirA enzyme, the KIR2DS2 protein was incubated with streptavidin-phycoerythrin to form fluorescent KIR2DS2-tetramers (KIR2DS2-PE). 3×10^5 L721.174 cells were then incubated overnight at 26° C. with indicated peptides at a concentration of […]. Cells were then stained with KIR2DS2-PE and analysed by flow cytometry. Shown are histogram plots. The bold numbers represent the mean fluorescent staining intensity of the KIR2DS2-PE staining of the cells in the presence of peptide and the non-bold numbers the staining in the absence of peptide. With reference to FIG. 4B, panel B represents the mean and standard error fluorescent intensities of the experiment in “A” following replicate experiments.
With reference to FIG. 5A, 3×10^5 L721.174 cells were incubated overnight at 26° C. with indicated peptides at a concentration of 200 μM. Cells were then stained with KIR2DS2-PE (see FIG. 4) and analysed by flow cytometry. Shown are histogram plots. The bold numbers represent the mean fluorescent staining intensity of the KIR2DS2-PE staining of the cells in the presence of peptide and the non-bold numbers the staining in the absence of peptide. With reference to FIG. 5B, panel B represents the mean and standard error fluorescent intensities of the experiment in “A” following replicate experiments.
With reference to FIG. 13, the KIR2DS2 protein was expressed as a recombinant protein with a biotinylation C-terminal tag. Following biotinylation with the BirA enzyme, the KIR2DS2 protein was incubated with streptavidin-phycoerythrin to form fluorescent KIR2DS2-tetramers (KIR2DS2-PE). […] Cells were then stained with KIR2DS2-PE and analysed by flow cytometry. […]

[2] = molecular target: T2, HLA-Cw*0102 (Homo sapiens, UniProt P10321, A176E/A330V/A35S/A97T/C350S/D114A/D33F/L171W/L180R/L218V/M285V/M309V/M331V/P208H/Q277E/Q291P/R121W/R243W/R30K/S123C/S140Y/S297R/T329A/T363A/V272M/V319A); test: Peptide binding to HLA-Cw*0102 on L721.174 cells (cell surface MHC class I, flow cytometry); type: cell-based; settings: increasing concentrations of peptide, overnight at 26° C.
Procedure: (§1) The HLA-Cw*0102-positive cell line L721.174 was incubated with increasing concentrations of the LNPSVAATL (SEQ ID NO: 5) peptide or a control peptide VAPWNSLSL (SEQ ID NO: 11). Cells were stained for cell surface of MHC class I and analysed by flow cytometry. The mean fluorescence intensity of cell surface MHC Class I was plotted against the peptide concentration.
as §1, with “HLA-Cw*0102 • positive” for “HLA-Cw*0102-positive”, “peptides IVDLMCHATF” for “LNPSVAATL”, “1); VIDAMCHATL (SEQ ID NO: 2); AANVMAASL (SEQ ID NO: 3); and FLSDVPVATL (SEQ ID NO: 4)” for “5) peptide”, “[…].” for “VAPWNSLSL (SEQ ID NO: 11).”
3×10^5 cells were used per condition. Following washing in PBS the cells were stained for cell surface of MHC class I and analysed by flow cytometry. The mean fluorescence intensity of cell surface MHC Class I was plotted against the peptide concentration.
With reference to FIG. 12, the HLA-Cw*0102-positive cell line L721.174 was incubated with increasing concentrations of the peptides IVDLMCHATF (SEQ ID NO: 1), VIDAMCHATL (SEQ ID NO: 2), AANVMAASL (SEQ ID NO: 3); and FLSDVPVATL (SEQ ID NO: 4) overnight at 26° C. 3×10^5 cells were used per condition. Following washing in PBS the cells were stained for cell surface of MHC class I and analysed by flow cytometry. The mean fluorescence intensity of cell surface MHC Class I was plotted against the peptide concentration.

[3] = tested on: NKL cell line transfected with KIR2DS2; test: Vav1 phosphorylation (pVav1 Western blot) in NKL cells transfected with KIR2DS2; type: cell-based; settings: HLA-C*0304:ICP47:721.221 cells loaded with peptide; 5 minutes
Procedure: A. L721.174 cells were incubated with indicated peptides. The cells were then incubated with the NK cell line transfected with KIR2DS2. The cells were lysed and the KIR2DS2 was then immunoprecipitated from the mixture using the GL183 antibody coupled to protein-G beads. The immune precipitate was analysed by Western blotting using a phosphotyrosine antibody. The membrane was then stripped and reprobed with an antibody to DAP12 the molecule that transduces a positive signal from KIR2DS2. Shown are the regions on the blots at the level of DAP12 (12-15 kDa). B. L721.174 cells were incubated with indicated peptides. The cells were then incubated with the NK cell line transfected with KIR2DS2 or transfected with KIR2DL2. The cells were lysed in 1% NP-40 and then analysed by Western blotting using antibodies to pVav1 and then following stripping of the membrane to Vav1. Shown are Western blots around the 98 kDa region, and below them the corresponding densitometries for 3 independent experiments.
FIG. 7 1×10^6 L721.221-HLA-C*0304-ICP47 cells were incubated overnight at 26° C. with indicated peptides at a concentration of […]. The cells were then incubated with the NKL cell line transfected with KIR2DS2 or transfected with KIR2DL2 for 5 minutes. The cells were lysed in 1% NP-40 and then analysed by Western blotting using antibodies to pVav1 and then following stripping of the membrane to Vav1. Shown are Western blots around the 98 kDa region, and below them the corresponding densitometries for 2 independent experiments.
FIG. 14—The Dengue virus peptide IVDLMCHATF (SEQ ID NO: 1) activates KIR2DS2 positive NK cells. 174 cells were incubated with the IVDLMCHATF (SEQ ID NO: 1) and then KIR2DS2-positive transfected NKL cells or KIR2DL2-positve transfected NKL cells. Activation of NK cells was assessed by western blotting for phosphorylated Vav1, and compared to total Vav1.
With reference to FIG. 6A, 1×10^6 L721.174 cells were incubated overnight at 26° C. with indicated peptides at a concentration of […]. The cells were then incubated with the NK cell line transfected with KIR2DS2 for 5 minutes. The cells were lysed in 1% digitonin buffer and the KIR2DS2 was then immunoprecipitated from the mixture using the GL183 antibody coupled to protein-G beads. The immune precipitate was analysed by Western blotting using a phosphotyrosine antibody. […] The cells were lysed in 1% NP-40 and then analysed by Western blotting using antibodies to pVav1 and then following stripping of the membrane to Vav1. […]
With reference to FIG. 7, 1×10^6 HLA-C*0304:ICP47:721.221 cells were incubated overnight at 26° C. with indicated peptides at a concentration of […]. […] The cells were lysed in 1% NP-40 and then analysed by Western blotting using antibodies to pVav1 and then following stripping of the membrane to Vav1. […]

[4] = tested on: KIR2DS2-negative donor NK cells; test: CD107a degranulation of NK cells from KIR2DS2-negative donors cultured with peptide-loaded L721.174 cells; type: cell-based; settings: CH-L antibody positive NK cells, four hours, compared to no peptide
Procedure: (§2) A. cells were incubated in the presence or absence of peptides, and then cultured with NK cells from either a KIR2DS2-positive or KIR2DS2-negative donor. The level of CD107a (LAMP) expression was measured on NK cells positive for the CH-L antibody. This antibody binds to KIR2DS2, KIR2DL2 and KIR2DL3. B. Summary data from 5 KIR2DS2-positive and 6 KIR2DS2 • negative donors tested as per panel A of FIG. 2. To compare the different donors the data are normalized to 100% for the no peptide condition.
(§3) With reference to FIG. 2A, 3×10^5 L721.174 cells were incubated at 26° C. overnight in the presence or absence of peptides, and then cultured for four hours with NK cells from either a KIR2DS2-positive or KIR2DS2-negative donor. The level of CD107a (LAMP) expression was measured on NK cells positive for the CH-L antibody. This antibody binds to KIR2DS2, KIR2DL2 and KIR2DL3. […] With reference to FIG. 2B, summary data from 5 KIR2DS2-positive and 6 KIR2DS2 • negative donors were tested as per panel A of FIG. 2. To compare the different donors the data are normalized to 100% for the no peptide condition.

[5] = tested on: KIR2DS2-positive NK cells; test: CD107a degranulation of NK cells from KIR2DS2-positive donors cultured with peptide-loaded L721.174 cells; type: cell-based; settings: KIR2DS2-positive donor, CH-L antibody positive NK cells, four hours, compared to no peptide
Procedure: as §2, §3

[6] = molecular target: T2, HLA-Cw*0102; settings: control peptide, known binder; cited from earlier work

T1 sequence (P43631 22-245 limits assumed): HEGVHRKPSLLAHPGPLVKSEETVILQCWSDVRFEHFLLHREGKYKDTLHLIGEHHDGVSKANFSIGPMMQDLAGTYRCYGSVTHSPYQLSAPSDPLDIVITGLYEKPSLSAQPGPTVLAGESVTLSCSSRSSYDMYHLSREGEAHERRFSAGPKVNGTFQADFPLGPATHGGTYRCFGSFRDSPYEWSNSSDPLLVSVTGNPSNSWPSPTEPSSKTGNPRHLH

Sequence | KIR2DS2-PE tetramer binding to HLA-C*0102 and peptide [1] | binding to HLA-Cw*0102 (mean fluorescence intensity of cell surface MHC Class I) [2] | also measured
AANVMAASL | KIR2DS2 BINDS | bind HLA-Cw*0102 | –
FLSDVPVATL | KIR2DS2 BINDS | bind HLA-Cw*0102 | –
GAVPDLATL | – | – | activation of KIR2DS2 (pVav1 vs Vav1) [3]: KIR2DS2 IS ACTIVATED
GAVPDLAWL | – | – | activation of KIR2DS2 (pVav1 vs Vav1) [3]: KIR2DS2 IS ACTIVATED
VAPWNSFAL [VAP-FA, negative control peptide, reference compound] | – | – | level of CD107a (LAMP) degranulation [4]: lower levels of degranulation; level of CD107a (LAMP) degranulation [5]: lower levels of degranulation
VAPWNSLSL | – | – | binding to HLA-Cw*0102 [6]: known to bind HLA-Cw*0102
VIDAMCHATL | KIR2DS2 BINDS | bind HLA-Cw*0102 | –
